Results taken from publication PMC7615117, “DNSN-1 recruits GINS for CMG helicase assembly during DNA replication initiation in C. elegans” (Science (New York, N.Y.), 2023).

T1: MCM-4 (C. elegans, UniProt Q95XQ8 1-823)
T1 construct: MCM-4, C. elegans; Subunit of m11, written alone for its interfaces in the structure; source: S. cerevisiae, purified as part of recombinant CMG
T1 sequence: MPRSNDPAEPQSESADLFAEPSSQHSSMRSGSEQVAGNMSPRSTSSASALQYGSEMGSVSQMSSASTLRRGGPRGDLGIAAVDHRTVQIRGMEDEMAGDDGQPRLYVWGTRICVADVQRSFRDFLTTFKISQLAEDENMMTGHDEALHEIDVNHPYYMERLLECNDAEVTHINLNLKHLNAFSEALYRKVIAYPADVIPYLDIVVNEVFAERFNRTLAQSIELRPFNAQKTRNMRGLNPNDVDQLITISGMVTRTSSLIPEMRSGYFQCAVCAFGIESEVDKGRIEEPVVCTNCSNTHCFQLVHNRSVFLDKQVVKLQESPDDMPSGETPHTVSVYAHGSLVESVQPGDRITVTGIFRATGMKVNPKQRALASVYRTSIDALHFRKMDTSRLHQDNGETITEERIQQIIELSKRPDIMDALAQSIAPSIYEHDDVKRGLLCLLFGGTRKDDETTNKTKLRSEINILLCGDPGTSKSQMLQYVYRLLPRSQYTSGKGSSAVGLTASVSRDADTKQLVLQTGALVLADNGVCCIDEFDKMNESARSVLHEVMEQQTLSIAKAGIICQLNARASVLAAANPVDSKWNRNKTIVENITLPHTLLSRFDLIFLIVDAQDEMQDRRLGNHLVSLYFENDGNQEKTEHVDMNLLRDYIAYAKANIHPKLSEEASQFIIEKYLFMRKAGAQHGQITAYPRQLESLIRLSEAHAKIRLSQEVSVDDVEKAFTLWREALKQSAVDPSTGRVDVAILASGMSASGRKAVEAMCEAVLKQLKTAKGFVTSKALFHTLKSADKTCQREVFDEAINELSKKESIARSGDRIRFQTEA

T2: MCM-3 (C. elegans, UniProt Q9XVR7 1-812)
T2 construct: MCM-3, C. elegans; Subunit of m11, written alone for its contacts in the structure; also called MCM-3 subunit of MCM-2-7; source: S. cerevisiae, purified as part of recombinant CMG
T2 sequence: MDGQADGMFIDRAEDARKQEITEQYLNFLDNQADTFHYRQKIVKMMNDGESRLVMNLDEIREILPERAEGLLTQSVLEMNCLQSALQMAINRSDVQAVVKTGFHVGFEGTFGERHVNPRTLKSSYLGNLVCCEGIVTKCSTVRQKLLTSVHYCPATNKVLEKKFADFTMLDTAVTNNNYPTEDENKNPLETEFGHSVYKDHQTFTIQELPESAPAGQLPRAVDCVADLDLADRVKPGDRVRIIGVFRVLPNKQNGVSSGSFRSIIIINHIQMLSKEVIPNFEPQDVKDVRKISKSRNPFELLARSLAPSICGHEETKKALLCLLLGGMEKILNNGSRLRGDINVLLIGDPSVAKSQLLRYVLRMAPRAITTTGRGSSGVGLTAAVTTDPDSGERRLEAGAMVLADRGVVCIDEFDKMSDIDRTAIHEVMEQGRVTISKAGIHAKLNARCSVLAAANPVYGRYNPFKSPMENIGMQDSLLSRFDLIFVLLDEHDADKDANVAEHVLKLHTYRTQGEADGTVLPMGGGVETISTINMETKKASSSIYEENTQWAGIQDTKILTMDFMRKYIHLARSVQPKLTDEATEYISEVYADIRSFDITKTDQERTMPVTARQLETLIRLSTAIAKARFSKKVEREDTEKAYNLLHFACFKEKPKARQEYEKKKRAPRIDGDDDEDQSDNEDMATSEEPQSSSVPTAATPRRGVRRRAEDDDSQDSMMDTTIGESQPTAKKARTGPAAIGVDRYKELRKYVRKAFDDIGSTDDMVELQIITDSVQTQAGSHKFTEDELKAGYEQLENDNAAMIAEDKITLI


Experiments:
Test in all cases: cryo-EM structure; CMG (125 nM) with fork DNA, AMP-PNP, TIM-1/TIPN-1 and DNSN-1 isoform c (each 1.3-fold molar excess), GraFix gradient with glutaraldehyde and BS3
[1] = molecular target: recombinant C. elegans DNSN-1 (C. elegans)
MCM-4 = molecular target: T1, MCM-4; conditions: both partners purified
MCM-3 = molecular target: T2, MCM-3; conditions: both partners purified

stoichiometry N [1] | binding result (MCM-4) | binding result (MCM-3) | Molecule
2 | – | – | recombinant C. elegans DNSN-1 (natural protein)
– | binds | binds | MCM-7 (natural protein, C. elegans, MCM-7, C. elegans; Subunit of m11, written alone for its interfaces in the structure; source: S. cerevisiae, purified as part of recombinant CMG) MKTTTYNTDWAAEKTKIRSFFDEYYVDNEDGSGKAFPYRDQVFEIARRDKQAIVVNVDHIKESDIPDALELSEAITSNTKRYEVLFKDTISDMIQDYLGDKQAPVIDALDAYMFQRLHMDRNEGAANEEVSLQDKRKKYPPQLLQRFEVYFTTDDAAHETCVRNIKATEIGHLVSMKGVVIRATEVKPCVEVMTYTCDTCAAEVYQPVKGMQFTPPVNCPNKECVEAKANGRLHMQLRGSKFVKFQELKIQELSEQVPVGSIPRTMTVHVYGEMTRKCNTGNVVHVSGVFLPIMQSGFRPTGGLVADTYLEAHYINNLDDNPTFNGVQSAELEVLRRKGDNYETLAASIAPEIFGHVDVKKCLLMALVGGNDNSSNGMKIRGCINVLMMGDPGVAKSQLLGYVNRLAPRSQYTTGRGSSGVGLTAAVMKDPVTGEMSLEGGALVLADGGICCIDEFDKMMDHDRTAIHEVMEQQTISIAKAGIMTTLNARTAIIAAANPAYGRYNPNRSIEQNVDLPAALLSRFDLILLMQDKADRENDKILAEHITYVHQHGCHPNREKKDLISLETLREYISLCKTYTPTVDPALRERIVEAYVEMRRDARYSSDPTFVSPRMILGIVRMATARAKLRLSTIVDESDVEEALRLMQFAKDSLRPEQNKIEKRMAPVDAAFAVLRELYHADNAPIAISNAIQRCARKGISEVALKKCLDQYTANGLLVMDRQNIVFAMN
